One experiment deals with T1, proTGF-α-hFc (human, UniProt P01135 24-89).
T1 construct: not shown: Fc portion of human immunoglobulin G1, fused on the C-terminal side
The experiment can be described thus: solid phase ELISA, proTGFα-hFc on plate. On the technique in general: ELISA stands for enzyme-linked immunosorbent assay.

For the next experiment, the target named is T2, TGF-α-hFc (human, UniProt P01135 40-89).
T2 construct: not shown: Fc portion of human immunoglobulin G1, fused on the C-terminal side
Briefly: solid phase ELISA, TGFα-hFc on plate.

Experiment [1] deals with T3, G79A-substituted human TGF-α expressed on 293T cells (human, UniProt P01135 24-160).
T3 construct: Made from pDIG-TGF-α (positions 1 to 160); also called G79A substitution analog; G79A-substituted TGF-α
The experiment can be described thus: flow cytometry on 293T cells. The method, then:
(§1) After washed with a wash buffer twice, the cells were allowed to react with a 200-fold diluted PE-labeled anti-mouse IgG antibody (MBL CO., LTD.) at 4° C. for 60 minutes.
A general note: In flow cytometry, cells or beads pass a laser one at a time.

The target in experiment [2] is T4, H74A-substituted human TGF-α expressed on 293T cells (human, UniProt P01135 24-160).
T4 construct: Made from pDIG-TGF-α (positions 1 to 160); also called H74A substitution analog
Briefly: flow cytometry on 293T cells. Here is the method: as §1

The target in experiment [3] is T5, transmembrane TGF-α (human TGF-α positions 1 to 160) expressed on 293T cells (human, UniProt P01135 24-160).
T5 construct: also called TGF-α/293T; TGFα/293T
T5 sequence: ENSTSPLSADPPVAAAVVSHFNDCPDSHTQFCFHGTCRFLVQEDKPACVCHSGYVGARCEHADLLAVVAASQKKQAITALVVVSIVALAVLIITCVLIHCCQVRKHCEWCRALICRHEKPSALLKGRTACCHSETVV
Briefly: flow cytometry, culture supernatant on transmembrane TGF-α/293T.

For experiment [4], the target named is commercially-available secreted TGF-α biosynthesized by Escherichia coli (R&D systems Inc.) (human, UniProt P01135 40-89). Briefly: cell-based or functional assay.

Residue numbers refer to the chain shown, from its start.

B1: MBL259-3 (antibody, mouse IgG2a, V domains shown)
VH: VQLQQSGAELVRPGASVKLSCTASDFNIKDDYMHWMKQRPEQGLEWIGRIDPANGNTKYAPKFQDKATMTADTSSNTAYLQFSSLTSEDTAVYYCATSWGFPYWGQGTLVTVSA
VL: DIVMTQAAPSVPVTPGESVSISCRSSKSLLHRNGNTYLYWFLQRPGQSPQLLIYRMSNLASGVPDRFSGSGSGTAFTLRISRVEAEDVGVYYCLQHLEYPYTFGSGTKLEIK
Consider B1, for which the “OD (solid phase ELISA)” value in the experiment with proTGF-α-hFc is 1.59 OD; with TGF-α-hFc, 1.11 OD. Moreover, the values for the binding result in experiment [1] and in experiment [2] were “no binding (tested: 5 µg/mL)” and “binds”, respectively.

B2: humanized chimeric anti-TGF-α antibody of MBL259-3 (antibody, human IgG1, V domains shown)
VH: B1 VH
VL: B1 VL
notes: tested as 293T culture supernatant; also called recombinant antibody MBL259-3
On to B2, for which the binding result in experiment [3] was “binds”.

B3: MBL009-15 (antibody, mouse IgG1, V domains shown)
VH: VQLQESGPGLVKPSQSLSLTCTVTGYSITSDYAWNWIRQFPGNKLEWMGYISYSGSTSYNPSLKSRISITRDTSKNQFFLQLNSVTTEDTATYYCARGGITRFAYWGQGTLVTVSA
VL: DIQMTQTTSSLSASLGDRLTISCRASQDIRNYLNWYQQKPDGTVKLLIYYTSRLHSGVPSRFSGSGSGTDYSLTISNLEQEDIATYFCQQGNTLPWTFGGGTKLEIK
Consider B3, for which the figures for the “OD (solid phase ELISA)” value in the experiment with proTGF-α-hFc and with TGF-α-hFc were 1.51 OD and 0.879 OD, respectively. In addition, the binding result is given as “no binding (tested: 5 µg/mL)” in experiment [1] and “binds” in experiment [2].

B4: humanized chimeric anti-TGF-α antibody of MBL009-15 (antibody, human IgG1, V domains shown)
VH: B3 VH
VL: B3 VL
notes: tested as 293T culture supernatant; also called recombinant antibody MBL009-15
For B4, in experiment [3], the binding result was “binds”.

B5: MBL292-1 (antibody, mouse IgG1, V domains shown)
VH: VQLQQSGAELVRPGASVKLSCTASGFNIKDDYMHWMKQRPEQGLEWIGRIDPANGNTKYAPKFQDKATITADTSSNTAYLQLSSLTSEDTAVYYCSRMGLLRGYWGQGTTLTVSS
VL: IQMTQSSSSLSVSLGDRVTITCKASVHINSWLAWYQQKPGNAPRLLISGATNLKTGVPSRFSGSASGKDYTLSITSLQTEDVATYYCQQYWDTPWTFGGGTKLEIK
For the molecule B5, the “inhibition of EGFR tyrosine phosphorylation (P-Tyr1173) in A431 cells, antibody at 10 µg/mL” value in experiment [4] is at least 70%. Further, the “OD (solid phase ELISA)” value was 1.45 OD in the experiment with proTGF-α-hFc and 1.04 OD in the experiment with TGF-α-hFc. The binding result in experiment [1] was “no binding (tested: 5 µg/mL)”; in experiment [2], “binds”.

B6: MBL184-6 (antibody, mouse IgG1, V domains shown)
VH: EVQLQQSGAELVRPGASVKLSCTVSGFNIKDDYMHWVKQRPEQGLEWIGRIDPANGHTKYAPKFQDKATITADTSSNTAYLQFSSLTSEDTAVYYCTRMGLRRGYWGQGTTLTVSS
VL: B5 VL with V26E, S73N, D92G
As to B6, the “inhibition of EGFR tyrosine phosphorylation (P-Tyr1173) in A431 cells, antibody at 10 µg/mL” value in experiment [4] was at least 70%. Moreover, the results for the “OD (solid phase ELISA)” value in the experiment with proTGF-α-hFc and in the experiment with TGF-α-hFc were 1.4 OD and 0.745 OD, respectively. In addition, the binding result in experiment [1] is on record as “no binding (tested: 5 µg/mL)”; in experiment [2], “binds”.

B7: humanized chimeric anti-TGF-α antibody of MBL184-6 (antibody, human IgG1, V domains shown)
VH: B6 VH
VL: B5 VL with V26E, S73N, D92G
notes: tested as 293T culture supernatant; also called recombinant antibody MBL184-6
Turning to B7, in experiment [3], the binding result is listed as “binds”.

B8: humanized chimeric anti-TGF-α antibody of MBL292-1 (antibody, human IgG1, V domains shown)
VH: B5 VH
VL: B5 VL
notes: tested as 293T culture supernatant; also called recombinant antibody MBL292-1
On to B8, for which, in experiment [3], the binding result is listed as “binds”.

B9: MBL352-34 (antibody, mouse IgG1, V domains shown)
VH: B5 VH with M36V, N56H, L82F, S96T, L101R
VL: B5 VL with V26E, D92G
In the case of B9, the “inhibition of EGFR tyrosine phosphorylation (P-Tyr1173) in A431 cells, antibody at 10 µg/mL” value in experiment [4] was at least 70%. In addition, the “OD (solid phase ELISA)” value with proTGF-α-hFc amounted to 1.35 OD; with TGF-α-hFc, 0.704 OD. In addition, the binding result in experiment [1] was “no binding (tested: 5 µg/mL)”; in experiment [2], “binds”.

B10: humanized chimeric anti-TGF-α antibody of MBL352-34 (antibody, human IgG1, V domains shown)
VH: B5 VH with M36V, N56H, L82F, S96T, L101R
VL: B5 VL with V26E, D92G
notes: tested as 293T culture supernatant; also called recombinant antibody MBL352-34
Consider B10, for which the binding result in experiment [3] is “binds”.

B11: MBL018-1 (antibody, mouse IgG1, V domains shown)
VH: EVQLQQSGTVLTRPGASVKMSCKASGYTFTNFWIHWVKQRPGQGLDWIGAIYPGNTNTDYNQKFQGKAKLTAVSSASTAYMELSSLTNEDSAVYYCTRGGAMDYWGQGTSVTVSS
VL: IVMTQTPKLLPVSAGDRVTMTCKASQSVDNSVAWYQQKPGQSPKLLIFYASNHYTGVPDRFTASGSGTDFTFTISSVQVEDLAVYFCQQHFSSPRTFGGGTKLEIR
As to B11, the “inhibition of EGFR tyrosine phosphorylation (P-Tyr1173) in A431 cells, antibody at 10 µg/mL” value in experiment [4] was at least 70%. Further, the “OD (solid phase ELISA)” value is 1.51 OD with proTGF-α-hFc and 0.703 OD with TGF-α-hFc. Moreover, the binding result in experiment [1] was “no binding (tested: 5 µg/mL)”; in experiment [2], “binds”.

B12: humanized chimeric anti-TGF-α antibody of MBL018-1 (antibody, human IgG1, V domains shown)
VH: B11 VH
VL: B11 VL
notes: tested as 293T culture supernatant; also called recombinant antibody MBL018-1
As for B12, the binding result in experiment [3] was “binds”.

B13: MBL144-1 (antibody, mouse IgG1, V domains shown)
VH: VQLQESGPGLAKPSQTLSLTCSVTGYSITSDYWNWIRKFPGNKLEYMGYISYSGSTYYNPSLKSRISITRDTSKNQYYLQLNSVTTEDTATYYCARSYDGICFDNWGQGTTLTVSS
VL: DILMTQSPATLSVTPGETVSLSCRASQNTYKNLHWYQQKSHGTPKLLIKYASAPISGIPSRFTGSGSGTDYTLSINSVKPEDEGIYYCLQGYSMPWTFGGGTKLEIK
For the molecule B13, the “inhibition of EGFR tyrosine phosphorylation (P-Tyr1173) in A431 cells, antibody at 10 µg/mL” value in experiment [4] is at least 70%. Also, the results for the “OD (solid phase ELISA)” value with proTGF-α-hFc and with TGF-α-hFc were 1.42 OD and 0.65 OD, respectively. In addition, the binding result in experiment [1] is “no binding (tested: 5 µg/mL)”; in experiment [2] it was “binds”.

B14: humanized chimeric anti-TGF-α antibody of MBL144-1 (antibody, human IgG1, V domains shown)
VH: B13 VH
VL: B13 VL
notes: tested as 293T culture supernatant; also called recombinant antibody MBL144-1
With B14, the binding result in experiment [3] is given as “binds”.

B15: MBL016-8 (antibody, mouse IgG2a, V domains shown)
VH: VQLQQSGAELVRPGASVKLSCTASGFNIKDDYMYWVKQRPEQGLEWIGRIDPANGNTKYAPKFQDKATITADTSSNTAYLHLSSLTSEDTAVFYCAYRRAYWGQGTLVTVSA
VL: DIQMTQSPSSLSASLGGKVTITCKASQDINKYIAWYQHKPGKGPRLFIHYTSKLQPGIPSRFSGSGSGRDYSFSISNLEPEDIATYYCLQYDNLLYTFGGGTKLEIK
With B15, the “inhibition of EGFR tyrosine phosphorylation (P-Tyr1173) in A431 cells, antibody at 10 µg/mL” value in experiment [4] is at least 70%. In addition, the “OD (solid phase ELISA)” value with proTGF-α-hFc amounted to 1.37 OD; with TGF-α-hFc, 0.869 OD. For the same molecule, the binding result was “no binding (tested: 5 µg/mL)” in experiment [1] and “binds” in experiment [2].

B16: humanized chimeric anti-TGF-α antibody of MBL016-8 (antibody, human IgG1, V domains shown)
VH: B15 VH
VL: B15 VL
notes: tested as 293T culture supernatant; also called recombinant antibody MBL016-8
B16: the binding result in experiment [3] is given as “binds”.

These data come from patent US20130131322A1 (MEDICAL AND BIOLOGICAL LABORATORIES, published 2013).
